Experimental data: publication PMC9463131, “SLITRK1-mediated noradrenergic projection suppression in the neonatal prefrontal cortex” (Communications Biology, 2022)
Numbering of substitutions follows the chain as printed.

T1: SLITRK1-A444S-Fc (human, UniProt Q96PX8 18-616, A444S)
T1 sequence: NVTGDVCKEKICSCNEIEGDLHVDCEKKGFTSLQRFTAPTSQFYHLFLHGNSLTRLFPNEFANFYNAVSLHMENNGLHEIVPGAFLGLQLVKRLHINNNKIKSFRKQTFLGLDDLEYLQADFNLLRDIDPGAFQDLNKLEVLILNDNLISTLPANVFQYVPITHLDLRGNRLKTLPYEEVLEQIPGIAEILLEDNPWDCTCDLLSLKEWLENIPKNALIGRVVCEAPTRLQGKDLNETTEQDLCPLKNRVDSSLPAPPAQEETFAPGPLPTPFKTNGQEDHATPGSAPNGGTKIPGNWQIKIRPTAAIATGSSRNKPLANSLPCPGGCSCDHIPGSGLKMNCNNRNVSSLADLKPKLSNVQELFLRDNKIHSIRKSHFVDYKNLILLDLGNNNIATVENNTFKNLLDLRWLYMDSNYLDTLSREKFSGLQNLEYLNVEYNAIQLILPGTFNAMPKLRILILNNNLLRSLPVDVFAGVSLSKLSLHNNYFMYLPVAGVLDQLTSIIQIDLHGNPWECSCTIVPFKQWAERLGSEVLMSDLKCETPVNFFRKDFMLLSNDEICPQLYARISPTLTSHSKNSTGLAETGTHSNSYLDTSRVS

T2: SLITRK1-S330A-Fc (human, UniProt Q96PX8 18-616, S330A)
T2 sequence: T1 sequence with S313A, S427A

T3: SLITRK1-A444S-Fc (human, UniProt Q96PX8 18-616, A444S)
T3 construct: signal peptide in the construct; human SLITRK1 extracellular domain, amino acid number 1-616 in NP_443142, with the patient-derived variant A444S; A444S was found in 2 of 364 patients with bipolar disorder; made by site-directed mutagenesis; also called SLITRK1 ECD-Fc A444S
T3 sequence (looked up): T1 sequence

T4: SLITRK1-S330A-Fc (human, UniProt Q96PX8 18-616, S330A)
T4 construct: signal peptide in the construct; human SLITRK1 extracellular domain, amino acid number 1-616 in NP_443142, with the patient-derived variant S330A; S330A is a variant found in patients and controls (global MAF 0.002); made by site-directed mutagenesis; also called SLITRK1 ECD-Fc S330A
T4 sequence (looked up): T1 sequence with S313A, S427A

T5: SLITRK1 ECD-immunoglobulin Fc domain-fusion protein (SLITRK1-WT-Fc) (human, UniProt Q96PX8 18-616)
T5 construct: signal peptide in the construct; human SLITRK1 extracellular domain, amino acid number 1-616 in NP_443142; also called SLITRK1 ECD-Fc; SLITRK1 ECD-Fc fusion protein
T5 sequence (looked up): T1 sequence with S427A

B1: human Neurofascin ECD-His6 (8208-NF-050, R&D Systems) (domain or fragment)
chain: IEIPMDLTQPPTITKQSAKDHIVDPRDNILIECEAKGNPAPSFHWTRNSRFFNIAKDPRVSMRRRSGTLVIDFRSGGRPEEYEGEYQCFARNKFGTALSNRIRLQVSKSPLWPKENLDPVVVQEGAPLTLQCNPPPGLPSPVIFWMSSSMEPITQDKRVSQGHNGDLYFSNVMLQDMQTDYSCNARFHFTHTIQQKNPFTLKVLTNHPYNDSSLRNHPDMYSARGVAERTPSFMYPQGTASSQMVLRGMDLLLECIASGVPTPDIAWYKKGGDLPSDKAKFENFNKALRITNVSEEDSGEYFCLASNKMGSIRHTISVRVKAAPYWLDEPKNLILAPGEDGRLVCRANGNPKPTVQWMVNGEPLQSAPPNPNREVAGDTIIFRDTQISSRAVYQCNTSNEHGYLLANAFVSVLDVPPRMLSPRNQLIRVILYNRTRLDCPFFGSPIPTLRWFKNGQGSNLDGGNYHVYENGSLEIKMIRKEDQGIYTCVATNILGKAENQVRLEVKDPTRIYRMPEDQVARRGTTVQLECRVKHDPSLKLTVSWLKDDEPLYIGNRMKKEDDSLTIFGVAERDQGSYTCVASTELDQDLAKAYLTVLGRPDRPRDLELTDLAERSVRLTWIPGDANNSPITDYVVQFEEDQFQPGVWHDHSKYPGSVNSAVLRLSPYVNYQFRVIAINEVGSSHPSLPSERYRTSGAPPESNPGDVKGEGTRKNNMEITWTPMNATSAFGPNLRYIVKWRRRETREAWNNVTVWGSRYVVGQTPVYVPYEIRVQAENDFGKGPEPESVIGYSGEDYPRAAPTEVKVRVMNSTAISLQWNRVYSDTVQGQLREYRAYYWRESSLLKNLWVSQKRQQASFPGDRLRGVVSRLFPYSNYKLEMVVVNGRGDGPRSETKEFTTPEGVPSAPRRFRVRQPNLETINLEWDHPEHPNGIMIGYTLKYVAFNGTKVGKQIVENFSPNQTKFTVQRTDPVSRYRFTLSARTQVGSGEAVTEESPAPPNEAYTNNQADIATQGW
B2: L1CAM ECD-His6 (777-NC-100, R&D Systems) (domain or fragment)
chain: IQIPEEYEGHHVMEPPVITEQSPRRLVVFPTDDISLKCEASGKPEVQFRWTRDGVHFKPKEELGVTVYQSPHSGSFTITGNNSNFAQRFQGIYRCFASNKLGTAMSHEIRLMAEGAPKWPKETVKPVEVEEGESVVLPCNPPPSAEPLRIYWMNSKILHIKQDERVTMGQNGNLYFANVLTSDNHSDYICHAHFPGTRTIIQKEPIDLRVKATNSMIDRKPRLLFPTNSSSHLVALQGQPLVLECIAEGFPTPTIKWLRPSGPMPADRVTYQNHNKTLQLLKVGEEDDGEYRCLAENSLGSARHAYYVTVEAAPYWLHKPQSHLYGPGETARLDCQVQGRPQPEVTWRINGIPVEELAKDQKYRIQRGALILSNVQPSDTMVTQCEARNRHGLLLANAYIYVVQLPAKILTADNQTYMAVQGSTAYLLCKAFGAPVPSVQWLDEDGTTVLQDERFFPYANGTLGIRDLQANDTGRYFCLAANDQNNVTIMANLKVKDATQITQGPRSTIEKKGSRVTFTCQASFDPSLQPSITWRGDGRDLQELGDSDKYFIEDGRLVIHSLDYSDQGNYSCVASTELDVVESRAQLLVVGSPGPVPRLVLSDLHLLTQSQVRVSWSPAEDHNAPIEKYDIEFEDKEMAPEKWYSLGKVPGNQTSTTLKLSPYVHYTFRVTAINKYGPGEPSPVSETVVTPEAAPEKNPVDVKGEGNETTNMVITWKPLRWMDWNAPQVQYRVQWRPQGTRGPWQEQIVSDPFLVVSNTSTFVPYEIKVQAVNSQGKGPEPQVTIGYSGEDYPQAIPELEGIEILNSSAVLVKWRPVDLAQVKGHLRGYNVTYWREGSQRKHSKRHIHKDHVVVPANTTSVILSGLRPYSSYHLEVQAFNGRGSGPASEFTFSTPEGVPGHPEALHLECQSNTSLLLRWQPPLSHNGVLTGYVLSYHPLDEGGKGQLSFNLRDPELRTHNLTDLSPHLRYRFQLQATTKEGPGEAIVREGGTMALSGISDFGNISATAGENYSVVSWVPKEGQCNFRFHILFKALGEEKGGASLSPQYVSYNQSSYTQWDLQPDTDYEIHLFKERMFRHQMAVKTNGTGRVRLPPAGFATE

Columns and labels:
SLITRK1-A444S-Fc [1] = biological target: T1, SLITRK1-A444S-Fc; experiment: BLI
SLITRK1-S330A-Fc [2] = biological target: T2, SLITRK1-S330A-Fc; experiment: BLI
SLITRK1-A444S-Fc [3] = biological target: T3, SLITRK1-A444S-Fc; experiment: quartz crystal microbalance; AffinixQ, 27 MHz; about 200 femtomoles SLITRK1 ECD-Fc (WT, S330A or A444S) immobilised through anti-human IgG Fc on the gold resonator; ECD-His6 proteins added at several concentrations; 50 mM Tris-HCl pH 7.6, 15 mM NaCl, 140 mM KCl, 0.5 mM MgCl2, 2 mM CaCl2; 25 ± 1 °C; KD = koff/kon; settings: both partners purified
SLITRK1-S330A-Fc [4] = biological target: T4, SLITRK1-S330A-Fc; experiment: as above; settings: both partners purified
[5] = biological target: T5, SLITRK1 ECD-immunoglobulin Fc …; experiment: as above; settings: both partners purified
SLITRK1-A444S-Fc [6] = biological target: T1, SLITRK1-A444S-Fc; experiment: BLI; remark: listed apart in the source
SLITRK1-S330A-Fc [7] = biological target: T2, SLITRK1-S330A-Fc; experiment: BLI; remark: listed apart in the source

| Binder | koff (SLITRK1-A444S-Fc [1]) | koff (SLITRK1-S330A-Fc [2]) | Kd (SLITRK1-A444S-Fc [3]) | Kd (SLITRK1-S330A-Fc [4]) | Kd [5] | Kd (SLITRK1-A444S-Fc [6]) | Kd (SLITRK1-S330A-Fc [7]) |
| --- | --- | --- | --- | --- | --- | --- | --- |
| B1 | 0.00577 s⁻¹ | 0.00665 s⁻¹ | 14.2 nM | 59.3 nM | 16.6 nM | – | – |
| B2 | 0.0008 s⁻¹ | 0.00084 s⁻¹ | – | – | – | 4.69 nM | 5.83 nM |
